Here are results for six molecules from patent KR20220160483A (dated 2022).

Test [1] deals with T1, 재조합 마우스 ASM(acid sphingomyelinase) 단백질 (mouse, UniProt Q04519 45-626, limits assumed).
T1 construct: Recombinant protein; also called 마우스 ASM 단백질; recombinant mouse ASM protein
T1 sequence: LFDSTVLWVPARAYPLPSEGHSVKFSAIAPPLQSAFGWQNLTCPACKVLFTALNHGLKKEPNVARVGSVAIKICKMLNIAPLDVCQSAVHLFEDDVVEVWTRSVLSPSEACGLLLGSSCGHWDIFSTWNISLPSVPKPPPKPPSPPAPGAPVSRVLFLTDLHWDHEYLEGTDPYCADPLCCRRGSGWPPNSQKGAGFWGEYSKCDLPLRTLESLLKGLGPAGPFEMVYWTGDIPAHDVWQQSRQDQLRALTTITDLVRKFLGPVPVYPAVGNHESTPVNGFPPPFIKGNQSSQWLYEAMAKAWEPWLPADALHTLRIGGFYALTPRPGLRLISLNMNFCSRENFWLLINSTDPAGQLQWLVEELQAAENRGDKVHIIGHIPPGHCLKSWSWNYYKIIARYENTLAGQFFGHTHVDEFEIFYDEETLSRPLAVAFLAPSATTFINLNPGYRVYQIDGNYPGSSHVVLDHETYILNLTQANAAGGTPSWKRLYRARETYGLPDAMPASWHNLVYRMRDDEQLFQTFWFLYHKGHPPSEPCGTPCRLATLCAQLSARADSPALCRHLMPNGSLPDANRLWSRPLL
The test can be described thus: BLI (Octet QK384), mouse ASM amine-coupled on AR2G sensor, antibody 0.4, 2, 10 nM. (In general: In BLI a coated tip is dipped into the sample, and binding shifts an interference pattern.)

In test [2] the target is T2, 재조합 인간 ASM(acid sphingomyelinase) 단백질 (human, UniProt P17405 62-630, limits assumed).
T2 construct: Recombinant protein, bought (R&D systems in the ELISA); also called 인간 ASM 단백질; recombinant human ASM protein
T2 sequence: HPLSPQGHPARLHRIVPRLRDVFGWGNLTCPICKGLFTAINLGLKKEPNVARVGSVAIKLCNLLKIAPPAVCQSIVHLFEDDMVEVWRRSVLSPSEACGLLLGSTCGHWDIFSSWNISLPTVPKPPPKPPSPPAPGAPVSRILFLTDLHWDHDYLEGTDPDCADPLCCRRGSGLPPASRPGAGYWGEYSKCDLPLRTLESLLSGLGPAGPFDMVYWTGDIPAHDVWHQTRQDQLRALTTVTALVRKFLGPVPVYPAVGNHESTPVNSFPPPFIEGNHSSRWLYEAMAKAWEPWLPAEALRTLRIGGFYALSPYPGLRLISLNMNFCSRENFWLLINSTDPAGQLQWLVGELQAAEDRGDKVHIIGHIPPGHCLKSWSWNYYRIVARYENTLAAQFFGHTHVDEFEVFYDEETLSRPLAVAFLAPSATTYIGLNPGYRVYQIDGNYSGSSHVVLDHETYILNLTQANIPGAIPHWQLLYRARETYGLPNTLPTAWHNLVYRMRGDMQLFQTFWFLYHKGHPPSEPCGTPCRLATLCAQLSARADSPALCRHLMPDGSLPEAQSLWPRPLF
The test can be described thus: BLI (Octet QK384), human ASM amine-coupled on AR2G sensor, antibody 0.4, 2, 10 nM.

In test [3] the target is T2, 재조합 인간 ASM(acid sphingomyelinase) 단백질. The test can be described thus: ELISA, recombinant human ASM coated at 1 ㎍/㎖, anti-mouse IgG-HRP. In general terms: An ELISA detects its analyte on a solid surface through an enzyme-linked reagent.
Test [4] has as its target T1, 재조합 마우스 ASM(acid sphingomyelinase) 단백질. The test can be described thus: BLI (Octet QK384), mouse ASM amine-coupled on AR2G sensor, antibody 0.4, 2, 10 nM; poor fit (RMax 0.0185, Full R2 0.5527), text does not count it as binding.
The target is the same in test [5]. The test can be described thus: BLI (Octet QK384), mouse ASM amine-coupled on AR2G sensor, antibody 0.4, 2, 10 nM; no signal (RMax 0, Full R2 0), text does not count it as binding.

Where only a bound is given, the exact number is not on record here.

B1: #9102 항체 (antibody, mouse IgG1, V domains shown)
VH: EVQLLESGGGLVQPGGSLRLSCAASGFTFSGYYMSWVRQAPGKGLEWVSLISPGSGSIYYADSVKGRFTISRDNSKNTLYLQMNSLRAEDTAVYYCAKSWHHFDYWGQGTLVTVSS
VL: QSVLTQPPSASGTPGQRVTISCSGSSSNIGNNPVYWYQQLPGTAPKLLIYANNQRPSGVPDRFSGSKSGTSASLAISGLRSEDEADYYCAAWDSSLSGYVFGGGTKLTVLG
With B1, in test [1], binding was characterised by a dissociation constant (Kd) of 0.498 nM; the dissociation rate constant (koff) – broadly, the first-order rate constant of dissociation – amounted to 0.000243 s⁻¹; the on-rate (kon) (as a rule, a measure of how fast the partners come together) worked out at 489000 M⁻¹ s⁻¹. In addition, in test [2], the Kd (as a rule, the concentration at which binding is half-saturated) was 0.252 nM; the koff was found to be 0.000105 s⁻¹; the on-rate (kon) was found to be 416000 M⁻¹ s⁻¹. Moreover, in test [3], the EC50 (commonly the concentration giving half of the maximal effect) stood at 0.0954 nM.

B2: #9101 항체 (antibody, mouse IgG1, V domains shown)
VH: EVQLLESGGGLVQPGGSLRLSCAASGFTFSNYAMSWVRQAPGKGLEWVSGIYPNGGNKYYADSVKGRFTISRDNSKNTLYLQMNSLRAEDTAVYYCAKNAYRFDYWGQGTLVTVSS
VL: QSVLTQPPSASGTPGQRVTISCSGSSSNIGNNYVSWYQQLPGTAPKLLIYADSKRPSGVPDRFSGSKSGTSASLAIGGLRSEDEADYYCGSWDYSLNAYVFGGGTKLTVLG
On to B2, for which, in test [2], the Kd worked out at 1.16 nM, the koff came to 0.000728 s⁻¹ and the on-rate constant (kon) turned out to be 626000 M⁻¹ s⁻¹. In test [4], this molecule registered a Kd of 0.0425 nM, a koff of 0.000159 s⁻¹ and an association rate constant (kon) of 3.76e+06 M⁻¹ s⁻¹. Also, the concentration for a half-maximal effect (EC50) in test [3] came to 0.0815 nM.

B3: #9108 항체 (antibody, mouse IgG1, V domains shown)
VH: EVQLLESGGGLVQPGGSLRLSCAASGFTFSNYAMSWVRQAPGKGLEWVSAIYPGGGSIYYADSVKGRFTISRDNSKNTLYLQMNSLRAEDTAVYYCARDVLGLTPKPFDYWGQGTLVTVSS
VL: QSVLTQPPSASGTPGQRVTLSCTGSSSNIGSNTVYWYQQLPGTAPKLLIYANSQRPSGVPDRFSGSKSGTSASLAISGLRSEDEADYYCGSWDYSLSGYVFGGGTKLTVLG
Consider B3, for which, in test [1], the affinity, expressed as Kd, was 3.39 nM; the koff worked out at 0.00156 s⁻¹; the kon came to 459000 M⁻¹ s⁻¹. Further, in test [2], the affinity, expressed as Kd, was 0.119 nM; the koff was 2.96e-05 s⁻¹; the kon was determined as 249000 M⁻¹ s⁻¹. Besides, the EC50 in test [3] was found to be 0.327 nM.

B4: #9113 항체 (antibody, mouse IgG1, V domains shown)
VH: EVQLLESGGGLVQPGGSLRLSCAASGFTFSSYYMSWVRQAPGKGLEWVSSISPGGSSIYYADSVKGRFTISRDNSKNTLYLQMNSLRAEDTAVYYCAKGASLFDYWGQGTLVTVSS
VL: QSVLTQPPSASGTPGQRVTISCSGSSSNIGNNAVSWYQQLPGTAPKLLIYSDNKRPSGVPDRFSGSKSGTSASLAISGLRSEDEADYYCGTWDASLNAYVFGGGTKLTVLG
notes: also called #9113 mIgG1
In test [2], B4 came in with a Kd of 0.564 nM, a koff of 0.000656 s⁻¹ and an on-rate (kon) of 1.16e+06 M⁻¹ s⁻¹. In test [5], this molecule displayed a Kd of less than 0.001 nM, a koff of less than 1e-07 s⁻¹ and an on-rate (kon) of 1e+06 M⁻¹ s⁻¹.

B5: #9104 항체 (antibody, mouse IgG1, V domains shown)
VH: EVQLLESGGGLVQPGGSLRLSCAASGFTFSNYYMSWVRQAPGKGLEWVSGIYYGSGNIYYADSVKGRFTISRDNSKNTLYLQMNSLRAEDTAVYYCARDTPGFDYWGQGTLVTVSS
VL: QSVLTQPPSASGTPGQRVTISCTGSSSNIGNNAVNWYQQLPGTAPKLLIYYDSHRPSGVPDRFSGSKSGTSASLAISGLRSEDEADYYCGAWDYSLSAYVFGGGTKLTVLG
In test [1], B5 returned a Kd of 0.638 nM, a koff of 0.000198 s⁻¹ and an on-rate constant (kon) of 310000 M⁻¹ s⁻¹. Further, in test [2], binding was characterised by a dissociation constant (Kd) of 0.209 nM, the koff stood at 8.18e-05 s⁻¹ and the kon amounted to 392000 M⁻¹ s⁻¹. The 50% effective concentration (EC50) in test [3] amounted to 1.95 nM.

B6: #9123 항체 (antibody, mouse IgG1, V domains shown)
VH: EVQLLESGGGLVQPGGSLRLSCAASGFTFSDYAMSWVRQAPGKGLEWVSAISYGGGNIYYADSVKGRFTISRDNSKNTLYLQMNSLRAEDTAVYYCARVGGMCTRRQCYYDYGMDVWGQGTLVTVSS
VL: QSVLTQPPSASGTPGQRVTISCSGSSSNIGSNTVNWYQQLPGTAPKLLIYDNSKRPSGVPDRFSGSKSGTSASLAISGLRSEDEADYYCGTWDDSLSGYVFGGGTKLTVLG
notes: also called #9123 mIgG1
Consider B6, for which the concentration giving a half-maximal response (EC50) in test [3] was found to be 0.758 nM.
